Experimental findings from doi:10.1101/2020.12.04.412312 are described below.

Usually stoichiometry N stands for a count of units in the complex or per binding partner.

The experiment concerns the target Leptospira interrogans triosephosphate isomerase (Leptospira interrogans). Description: SEC. In general terms: Size exclusion chromatography separates by hydrodynamic size, large species first.

“Leptospira interrogans triosephosphate isomerase (enzyme)” yielded a stoichiometry N of 2.
